Source: patent publication US10239925B2, “Peptides and combination of peptides for use in immunotherapy against ovarian cancer and other cancers” (IMMATICS BIOTECHNOLOGIES GMBH, priority 2015, dated 2019)

The substances below were run against HLA-A*02:01 (Homo sapiens, UniProt P04439, D140Y/D185E/D98H/E176V/E277Q/G131W/G231S/I119V/I121R/I166T/I218V/L300P/L318F/N151K/N90K/P208A/P217A/Q86G/Q94H/R138H/R169H/T345S) (assay: MHC binding assay (UV-ligand exchange, anti-β2m ELISA, peptide exchange yield)). Conditions: binding to HLA-A*02:01.
Outline: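 Yield of stabilized complexes quantified via the β2m light chain in an ELISA (streptavidin capture, 100-fold diluted monomers, HRP anti-β2m 2 ug/ml at 37 °C, TMB, A450). The complexes come from UV-triggered replacement of a photocleavable ligand by the candidate peptide.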

Substance | Peptide exchange (MHC class I binding score, peptide exchange yield)
314 (ALIAEGIALV; listed as Homo sapiens) [compound 314] | “+++” (>50 = +++)
315 (YLQDVVEQA; listed as Homo sapiens) [compound 315] | “+++” (>50 = +++)
316 (ILLERLWYV; listed as Homo sapiens) [compound 316] | “+++” (>50 = +++)
317 (SLAALVVHV; listed as Homo sapiens) [compound 317] | “+++” (>50 = +++)
318 (GLINTGVLSV; listed as Homo sapiens) [compound 318] | “++” (>20% = ++)
320 (KMFEFVEPLL; listed as Homo sapiens) [compound 320] | “++++” (>75% = ++++)
321 (GLFEDVTQPGILL; listed as Homo sapiens) [compound 321] | “++++” (>75% = ++++)
322 (TLMTSLPAL; listed as Homo sapiens) [compound 322] | “+++” (>50 = +++)
324 (FLYDEIEAEV; listed as Homo sapiens) [compound 324] | “+++” (>50 = +++)
325 (FIMPATVADATAV; listed as Homo sapiens) [compound 325] | “+++” (>50 = +++)
326 (FLPEALDFV; listed as Homo sapiens) [compound 326] | “+++” (>50 = +++)
327 (GLAPFTEGISFV; listed as Homo sapiens) [compound 327] | “+++” (>50 = +++)
328 (ALNDQVFEI; listed as Homo sapiens) [compound 328] | “+++” (>50 = +++)
329 (FLVTLNNVEV; listed as Homo sapiens) [compound 329] | “++++” (>75% = ++++)
330 (QLALKVEGV; listed as Homo sapiens) [compound 330] | “+++” (>50 = +++)
331 (KVDTVWVNV; listed as Homo sapiens) [compound 331] | “+++” (>50 = +++)
332 (YLISELEAA; listed as Homo sapiens) [compound 332] | “+++” (>50 = +++)
333 (FLPDANSSV; listed as Homo sapiens) [compound 333] | “++” (>20% = ++)
334 (TLTKVLVAL; listed as Homo sapiens) [compound 334] | “+++” (>50 = +++)
335 (YSLSSVVTV; listed as Homo sapiens) [compound 335] | “+++” (>50 = +++)
336 (ILLTAIVQV; listed as Homo sapiens) [compound 336] | “+++” (>50 = +++)
337 (HLLSELEAAPYL; listed as Homo sapiens) [compound 337] | “++++” (>75% = ++++)

Substance | Peptide exchange (MHC class I binding score, peptide exchange yield)
339 (GLWEIENNPTVKA; listed as Homo sapiens) [compound 339] | “++++” (>75% = ++++)
340 (ALLSMTFPL; listed as Homo sapiens) [compound 340] | “++++” (>75% = ++++)
341 (SQIALNEKLVNL; listed as Homo sapiens) [compound 341] | “+++” (>50 = +++)
342 (HIYDKVMTV; listed as Homo sapiens) [compound 342] | “+++” (>50 = +++)
343 (SLLEVNEESTV; listed as Homo sapiens) [compound 343] | “+++” (>50 = +++)
344 (YLQDQHLLLTV; listed as Homo sapiens) [compound 344] | “+++” (>50 = +++)
345 (VIWKALIHL; listed as Homo sapiens) [compound 345] | “+++” (>50 = +++)
346 (LLDSKVPSV; listed as Homo sapiens) [compound 346] | “+++” (>50 = +++)
347 (SLFKHDPAAWEA; listed as Homo sapiens) [compound 347] | “++++” (>75% = ++++)
348 (ILLDVKTRL; listed as Homo sapiens) [compound 348] | “++++” (>75% = ++++)
349 (SLTEYLQNV; listed as Homo sapiens) [compound 349] | “++++” (>75% = ++++)
350 (ALLDVTHSELTV; listed as Homo sapiens) [compound 350] | “+++” (>50 = +++)
351 (SLIPNLRNV; listed as Homo sapiens) [compound 351] | “+++” (>50 = +++)
352 (SLLELLHIYV; listed as Homo sapiens) [compound 352] | “+++” (>50 = +++)
353 (YLFEMDSSL; listed as Homo sapiens) [compound 353] | “++” (>20% = ++)
354 (LILEGVDTV; listed as Homo sapiens) [compound 354] | “++” (>20% = ++)
355 (SIQQSIERLLV; listed as Homo sapiens) [compound 355] | “++” (>20% = ++)
356 (KLLGKLPEL; listed as Homo sapiens) [compound 356] | “+++” (>50 = +++)
357 (SMHDLVLQV; listed as Homo sapiens) [compound 357] | “+++” (>50 = +++)
358 (ALDEYTSEL; listed as Homo sapiens) [compound 358] | “++++” (>75% = ++++)
359 (YLLPESVDL; listed as Homo sapiens) [compound 359] | “+++” (>50 = +++)
361 (ALYELEGTTV; listed as Homo sapiens) [compound 361] | “+++” (>50 = +++)

Substance | Peptide exchange (MHC class I binding score, peptide exchange yield)
362 (TLYGLSVLL; listed as Homo sapiens) [compound 362] | “+++” (>50 = +++)
363 (KVLDVSDLESV; listed as Homo sapiens) [compound 363] | “++” (>20% = ++)
364 (LLQNEQFEL; listed as Homo sapiens) [compound 364] | “+++” (>50 = +++)
365 (YVIDQGETDVYV; listed as Homo sapiens) [compound 365] | “+++” (>50 = +++)
366 (RLLDMGETDLML; listed as Homo sapiens) [compound 366] | “+++” (>50 = +++)
367 (SLQNHNHQL; listed as Homo sapiens) [compound 367] | “+++” (>50 = +++)
369 (GLFPEHLIDV; listed as Homo sapiens) [compound 369] | “+++” (>50 = +++)
370 (SLLQDLVSV; listed as Homo sapiens) [compound 370] | “+++” (>50 = +++)
371 (FLQAHLHTA; listed as Homo sapiens) [compound 371] | “++++” (>75% = ++++)
372 (TMLLNIPLV; listed as Homo sapiens) [compound 372] | “++” (>20% = ++)
373 (SLLEDKGLAEV; listed as Homo sapiens) [compound 373] | “++” (>20% = ++)
374 (FLLQQHLISA; listed as Homo sapiens) [compound 374] | “++” (>20% = ++)
375 (SLTETIEGV; listed as Homo sapiens) [compound 375] | “++” (>20% = ++)
376 (AMFESSQNVLL; listed as Homo sapiens) [compound 376] | “++” (>20% = ++)
377 (FLLDSSASV; listed as Homo sapiens) [compound 377] | “++” (>20% = ++)
378 (ALGYFVPYV; listed as Homo sapiens) [compound 378] | “+++” (>50 = +++)
379 (IMEGTLTRV; listed as Homo sapiens) [compound 379] | “++” (>20% = ++)
380 (TLIEDEIATI; listed as Homo sapiens) [compound 380] | “++” (>20% = ++)
381 (FIDEAYVEV; listed as Homo sapiens) [compound 381] | “++” (>20% = ++)
382 (ALQNYIKEA; listed as Homo sapiens) [compound 382] | “++” (>20% = ++)
383 (ALLELENSVTL; listed as Homo sapiens) [compound 383] | “+++” (>50 = +++)
385 (SLLEQGLVEA; listed as Homo sapiens) [compound 385] | “++” (>20% = ++)
